The labels stand for the following.
B1: Gamma-crystallin D, P07320 (parent)
chain: MGKITLYEDRGFQGRHYECSSDHPNLQPYLSRCNSARVDSGCWMLYEQPNYSGLQYFLRRGDYADHQQWMGLSDSVRSCRLIPHSGSHRIRLYEREDYRGQMIEFTEDCSCLQDRFRFNEIHSLNVLEGSWVLYELSNYRGRQYLLMPGDYRRYQDWGATNARVGSLRRVIDFS

Where “and” joins values, the source holds several entries; their conditions need not be identical. Equal entries are not always repeated.

In the data set the parent is B1. The settings on record: Homo sapiens; pH 7; 37 °C; GdnHCl; Fluorescence; Sodium phosphate 10 mM; transition: 3; structure 1HK0; whole UniProt chain shown.

With Q55A, the denaturant m value was 3.8 kcal/mol/M and 3.4 kcal/mol/M; the “denaturant midpoint (higher = more stable)” value (“denaturant midpoint” below) was 2 M and 2.9 M; the unfolding free energy is 31.4 kJ/mol and 40.2 kJ/mol.
As to M147A, the “ddG of mutation (higher = less stable)” value was 0 kJ/mol, the denaturant m value was 3.1 kcal/mol/M, the “denaturant midpoint” value was 2.8 M and the unfolding free energy was found to be 37.2 kJ/mol.
For R80A M147A, the denaturant m value came to 3.2 kcal/mol/M; the “denaturant midpoint” value was 1.7 M and 2.8 M; the unfolding free energy was 23.4 kJ/mol and 37.2 kJ/mol.
As to Q143A, the denaturant m value was 3.8 kcal/mol/M and 3 kcal/mol/M; the “denaturant midpoint” value was 1.9 M and 3 M; the unfolding free energy is 30.1 kJ/mol and 37.7 kJ/mol.
Regarding R80A, the “ddG of mutation (higher = less stable)” value is 4.18 kJ/mol and 5.44 kJ/mol; the denaturant m value was 3.4 kcal/mol/M and 2.7 kcal/mol/M; the “denaturant midpoint” value was 1.8 M and 2.9 M; the unfolding free energy is 28 kJ/mol and 31.8 kJ/mol.
For Q55A Q143A, the denaturant m value is 3.5 kcal/mol/M and 3.1 kcal/mol/M; the “denaturant midpoint” value was 1.8 M and 3.1 M; the unfolding free energy is 26.4 kJ/mol and 40.2 kJ/mol.

For the origin of these results see FireProtDB (doi:10.1110/ps.051460505).
